# From article PMC2173870 (The Journal of Cell Biology, 2002)
# “And” between values parts separate entries of the source, which are not always exact repeats. Equal entries are not always repeated.
# Molecular target: the molecule itself
# Assay: SEC
protein,measurement,value
"RMKKKDEGSYDLGKKPILQQAPTNEFYA (peptide, UniProt P34901 175-202, looked up) [syndecan-4 cytoplasmic tail peptide, PIP2- mutant (Y192KK to LQQ)]",stoichiometry N,4 and 6
